The data set deals with Bacillus subtilis. Put plainly: cleaved RNA product abundance (RNA/gDNA barcode ratio) relative to median wild-type variant (ratio to wild type); higher = more accumulation of the downstream cleavage product. Conditions: cleavage site: cggR-gapA (positions -7 to +36 mutated). The method in brief: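 Sequencing of barcodes from gel-selected, reverse-transcribed cleaved RNA and from genomic DNA, with UMI collapsing, yielded a per-construct RNA:gDNA ratio. Scaled to the median construct with the unmutated site, this ratio is the cleaved product abundance. The barcoded reporters (truncated aprE or tetM mRNAs with mutagenized RNase Y cleavage-site windows) were integrated into the B. subtilis chromosome, and cultures grew in LB at 37°C from OD600 0.0003 to 0.3.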

[1] abbreviates: experiment (reporter, strain, medium): exp 2b: truncated aprE reporter, strain BJT200.
The mark [2] stands for this setting: experiment (reporter, strain, medium): exp 4a: truncated aprE reporter, strain BJT201 with 2% xylose (RNase J1 expressed).
The mark [3] stands for this setting: experiment (reporter, strain, medium): exp 6: tetM reporter, strain 168.

On to “ACAGACGAAGGAGCCGCAAAGAAGTTATTAAGGGATGAATAATCCCACCATATAAATATCTCTCACTTATTTAAA”, for which the “cleaved RNA product abundance” value runs as follows: under setting [1], 0.16; under setting [2], 0.228.

Regarding “ACAGACGAAGGAGCCGCAAAGAAGTTATTAAGGGATGAATAATCCCACTATATAAATATCTCTCACTTATTTAAA”, the “cleaved RNA product abundance” value under setting [2] stood at 0.282.

As to “ACAGACGAAGGAGCCGCAAAGAAGTTATTAAGGGATGAATAATCCCAGAATATAAATATCTCTCACTTATTTAAA”, under setting [2], the “cleaved RNA product abundance” value is 0.361.

For the sequence “ACAGACGAAGGAGCCGCAAAGAAGTTATTAAGGGATGAATAATCCCATAATATAAATATCTCTCACTTATTTAAA”, under setting [2], the “cleaved RNA product abundance” value was found to be 0.715.

With “ACAGACGAAGGAGCCGCAAAGAAGTTATTAAGGGATGAATAATCCCCAAATATAAATATCTCTCACTTATTTAAA”, under setting [1], the “cleaved RNA product abundance” value came to 0.336.

For “ACAGACGAAGGAGCCGCAAAGAAGTTATTAAGGGATGAATAATCCCCCAATATAAACATCTCTCACTTATTTAAA”, under setting [2], the “cleaved RNA product abundance” value stood at 0.291.

With “ACAGACGAAGGAGCCGCAAAGAAGTTATTAAGGGATGAATAATCCCCCAATATAAATAACTCTCACTTATTTAAA”, under setting [2], the “cleaved RNA product abundance” value turned out to be 0.347.

Regarding “ACAGACGAAGGAGCCGCAAAGAAGTTATTAAGGGATGAATAATCCCCCAATATAAATATCTCTCACTTATTTAAA”, the “cleaved RNA product abundance” value runs as follows: under setting [1], 0.285; under setting [2], 0.36; under setting [3], 0.457.

As to “ACAGACGAAGGAGCCGCAAAGAAGTTATTAAGGGATGAATAATCCCCCAATATACATATCTCTCACTTATTTAAA”, the “cleaved RNA product abundance” value under setting [2] is 0.446.

In the case of “ACAGACGAAGGAGCCGCAAAGAAGTTATTAAGGGATGAATAATCCCCCACTATAAATATCTCTCACTTATTTAAA”, the “cleaved RNA product abundance” value under setting [2] was 0.3.

With “ACAGACGAAGGAGCCGCAAAGAAGTTATTAAGGGATGAATAATCCCCCTATATAAATATCTCTCACTTATTTAAA”, under setting [2], the “cleaved RNA product abundance” value stood at 0.151.

Regarding “ACAGACGAAGGAGCCGCAAAGAAGTTATTAAGGGATGAATAATCCCCTAATATAAATATCTCTCACTTATTTAAA”, the “cleaved RNA product abundance” value under setting [2] was determined as 1.25.

On to “ACAGACGAAGGAGCCGCAAAGAAGTTATTAAGGGATGAATAATCCCCTCAATATAAATATCTCTCACTTATTTAA”, for which the “cleaved RNA product abundance” value amounted to 0.181 under setting [1] and 0.364 under setting [2].

For the sequence “ACAGACGAAGGAGCCGCAAAGAAGTTATTAAGGGATGAATAATCCCGAAATATAAATATCTCTCACTTATTTAAA”, under setting [2], the “cleaved RNA product abundance” value came to 0.323.

Turning to “ACAGACGAAGGAGCCGCAAAGAAGTTATTAAGGGATGAATAATCCCGCAATATAAATATCTCTCACTTATTTAAA”, the “cleaved RNA product abundance” value was 0.194 under setting [1], 0.244 under setting [2] and 0.252 under setting [3].

Turning to “ACAGACGAAGGAGCCGCAAAGAAGTTATTAAGGGATGAATAATCCCGCAATATAGATATCTCTCACTTATTTAAA”, the “cleaved RNA product abundance” value under setting [2] was 0.279.

With “ACAGACGAAGGAGCCGCAAAGAAGTTATTAAGGGATGAATAATCCCGCAATATATATATCTCTCACTTATTTAAA”, the “cleaved RNA product abundance” value under setting [2] worked out at 0.139.

In the case of “ACAGACGAAGGAGCCGCAAAGAAGTTATTAAGGGATGAATAATCCCGCATTATAAATATCTCTCACTTATTTAAA”, under setting [2], the “cleaved RNA product abundance” value amounted to 0.101.

Consider “ACAGACGAAGGAGCCGCAAAGAAGTTATTAAGGGATGAATAATCCCGTAATATAAATATCTCTCACTTATTTAAA”, for which, under setting [2], the “cleaved RNA product abundance” value was 0.682.

For the sequence “ACAGACGAAGGAGCCGCAAAGAAGTTATTAAGGGATGAATAATCCCTAAAAATAAATATCTCTCACTTATTTAAA”, the “cleaved RNA product abundance” value under setting [1] was 0.213 and the “cleaved RNA product abundance” value under setting [2] was 0.423.

Take “ACAGACGAAGGAGCCGCAAAGAAGTTATTAAGGGATGAATAATCCCTAAACATAAATATCTCTCACTTATTTAAA”: under setting [2], the “cleaved RNA product abundance” value came to 0.323.

As to “ACAGACGAAGGAGCCGCAAAGAAGTTATTAAGGGATGAATAATCCCTAAAGATAAATATCTCTCACTTATTTAAA”, the “cleaved RNA product abundance” value under setting [1] worked out at 0.259.

Take “ACAGACGAAGGAGCCGCAAAGAAGTTATTAAGGGATGAATAATCCCTAAATACAAATATCTCTCACTTATTTAAA”: the “cleaved RNA product abundance” value under setting [2] is 0.0687.

For the sequence “ACAGACGAAGGAGCCGCAAAGAAGTTATTAAGGGATGAATAATCCCTAAATATAAAAATCTCTCACTTATTTAAA”, the “cleaved RNA product abundance” value runs as follows: under setting [1], 0.46; under setting [2], 0.622.

Consider “ACAGACGAAGGAGCCGCAAAGAAGTTATTAAGGGATGAATAATCCCTAAATATAAACATCTCTCACTTATTTAAA”, for which the “cleaved RNA product abundance” value by setting is: under setting [1], 0.509; under setting [2], 0.57.

On to “ACAGACGAAGGAGCCGCAAAGAAGTTATTAAGGGATGAATAATCCCTAAATATAAAGATCTCTCACTTATTTAAA”, for which the “cleaved RNA product abundance” value under setting [2] amounted to 0.356.

With “ACAGACGAAGGAGCCGCAAAGAAGTTATTAAGGGATGAATAATCCCTAAATATAAATAACTCTCACTTATTTAAA”, under setting [2], the “cleaved RNA product abundance” value stood at 0.442.

Consider “ACAGACGAAGGAGCCGCAAAGAAGTTATTAAGGGATGAATAATCCCTAAATATAAATATCTCTCACTATTTAAAG”, for which the “cleaved RNA product abundance” value under setting [2] worked out at 0.705.

(Values after the supplement of paper PMC11780869.)
